{
  "source": "paper PMC3624071",
  "about": "(Biochemistry, 2013)",
  "key": {"[1]": {"biological_target": "T1, EutB subunit of ethanolamine ammonia-lyase (EAL) from the EALH6 construct (S. typhimurium, UniProt P19264 1-453)", "T1 sequence": "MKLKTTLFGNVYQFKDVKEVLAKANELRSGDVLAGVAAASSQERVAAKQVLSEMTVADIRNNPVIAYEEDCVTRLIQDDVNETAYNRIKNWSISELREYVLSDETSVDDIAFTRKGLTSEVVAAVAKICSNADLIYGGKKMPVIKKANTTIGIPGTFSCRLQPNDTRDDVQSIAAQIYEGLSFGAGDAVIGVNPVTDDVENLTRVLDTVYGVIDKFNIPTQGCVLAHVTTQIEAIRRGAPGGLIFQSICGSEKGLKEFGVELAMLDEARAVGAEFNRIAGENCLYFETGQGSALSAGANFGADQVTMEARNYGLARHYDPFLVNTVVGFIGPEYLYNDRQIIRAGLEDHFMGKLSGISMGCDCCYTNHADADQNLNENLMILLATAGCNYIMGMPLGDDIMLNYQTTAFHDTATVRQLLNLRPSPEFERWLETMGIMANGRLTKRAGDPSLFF", "assay": "pull-down"}, "[2]": {"biological_target": "T1, EutB subunit of ethanolamine …", "assay": "pull-down", "remark": "listed apart in the source"}},
  "data": [
    {"binder": "EutC subunit of ethanolamine ammonia-lyase (EAL) from the EALH6 construct (natural protein) MDQKQIEEIVRSVMASMGQDVPQPAAPSTQEGAKPQCAAPTVTESCALDLGSAEAKAWIGVENPHRADVLTELRRSTAARVCTGRAGPRPRTQALLRFLADHSRSKDTVLKEVPEEWVKAQGLLEVRSEISDKNLYLTRPDMGRRLSPEAIDALKSQCVMNPDVQVVVSDGLSTDAITANYEEILPPLLAGLKQAGLNVGTPFFVRYGRVKIEDQIGEILGAKVVILLVGERPGLGQSESLSCYAVYSPRVATTVEADRTCISNIHQGGTPPVEAAAVIVDLAKRMLEQKASGINMTR", "values": [
      {"measurement": "subunit molar ratio after elution with 250 mM imidazole", "setting": "[1]", "value": 0.32, "unit": "mol EutC per mol EutB"},
      {"measurement": "stoichiometry N", "setting": "[2]", "value": 1.01, "unit": "mol EutC per mol EutB"}
    ]}
  ]
}
